Holding throughout (experiment): Spinach sensor fluorescence
One data set concerns the target thrombin (human, UniProt P00734;P00734 315-363;364-622).
For another data set, the target named is streptavidin (UniProt P22629 25-183).
In data set [1] the target is MS2 phage coat protein (MCP) (MS2 phage, UniProt P03612 2-130).
Chain of MS2 phage coat protein (MCP) (P03612 2-130): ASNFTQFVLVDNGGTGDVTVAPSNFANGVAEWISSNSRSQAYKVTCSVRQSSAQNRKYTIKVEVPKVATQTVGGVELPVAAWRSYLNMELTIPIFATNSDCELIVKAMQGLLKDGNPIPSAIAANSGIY

Chain of streptavidin (P22629 25-183): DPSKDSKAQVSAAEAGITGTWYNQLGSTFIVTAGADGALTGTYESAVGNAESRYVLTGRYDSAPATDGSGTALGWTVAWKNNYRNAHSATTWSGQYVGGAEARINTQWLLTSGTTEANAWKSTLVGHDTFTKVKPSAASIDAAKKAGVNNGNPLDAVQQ

B1: thrombin sensor (Spinach fusion) (structured_RNA)
RNA: GACGCGACUGAAUGAAAUGGUGAAGGACGGGUCCAGGAACAAAGCUGAAGUACUUACCUUGUUGAGUAGAGUGUGAGCUCCGUAACUAGUCGCGUC
On to B1, for which, in the data set with thrombin, the binding signal is 6.9 fold fluorescence increase.

B2: streptavidin sensor (Spinach fusion) (structured_RNA)
RNA: GACGCGACUGAAUGAAAUGGUGAAGGACGGGUCCACGACCGACCAGAAUCAUGCAAGUGCGUAAGAUAGUCGCGGGCCGGGGUUGUUGAGUAGAGUGUGAGCUCCGUAACUAGUCGCGUC
For the molecule B2, the binding signal in the data set with streptavidin was 10.3 fold fluorescence increase.

B3: MCP sensor (Spinach fusion with MS2E) (structured_RNA)
RNA: GACGCGACUGAAUGAAAUGGUGAAGGACGGGUCCAAUGAGGAUCACCCAUUUGUUGAGUAGAGUGUGAGCUCCGUAACUAGUCGCGUC
On to B3, for which the binding signal in data set [1] is 41.7 fold fluorescence increase.

For the origin of these results see PMC3758421.
